In patent publication US10801046B2, “Methods and materials for biosynthesizing multifunctional, multivariate molecules via carbon chain modification” (INVISTA NORTH AMERICA S.A.R.L., priority 2016, dated 2020):

B1: 5TE: Lactobacillus brevis thioesterase (protein)
chain: MAANEFSETHRVVYYEADDTGQLTLAMLINLFVLVSEDQNDALGLSTAFVQSHGVGWVVTQYHLHIDELPRTGAQVTIKTRATAYNRYFAYREYWLLDDAGQVLAYGEGIWVTMSYATRKITTIPAEVMAPYHSEEQTRLPRLPRPDHFDEAVNQTLKPYTVRYFDIDGNGHVNNAHYFDWMLDVLPATFLRAHHPTDVKIRFENEVQYGHQVTSELSQAAALTTQHMIKVGDLTAVKATIQWDNR
modifications: Lactobacillus brevis (strain ATCC 367 / JCM 1170)
notes: Lactobacillus brevis thioesterase
B2: 6TE: Lactobacillus delbrueckii thioesterase (protein, listed as Lactobacillus delbrueckii)
chain: MRYYKDYQLKYVDCGESGQLKLPRMIDLMMESSEGQLAPTLGGASAMKERGRGWVVTQYEFEFTSLPRAGQKVRVWTEAVGYNRFLSYRDFGIEDEAGKDLVIAHSQWVLFDLKSRKLLPSDDKIAEELGAPLLAKIPRFKKLRPKDDYKDEKVYRAYYYDLDSNHHVNNAHYLDWIVDSLPRDFVNSHEPKDLAIKFDKEIKYGDEVVCQVMQETEDSAVKTCHAITRQGELMALCEVNWQKMCFNRD
B3: SEQ ID NO: 119: Escherichia coli aminotransferase, gene product of ygjG (protein)
chain: MNRLPSSASALACSAHALNLIEKRTLDHEEMKALNREVIEYFKEHVNPGFLEYRKSVTAGGDYGAVEWQAGSLNTLVDTQGQEFIDCLGGFGIFNVGHRNPVVVSAVQNQLAKQPLHSQELLDPLRAMLAKTLAALTPGKLKYSFFCNSGTESVEAALKLAKAYQSPRGKFTFIATSGAFHGKSLGALSATAKSTFRKPFMPLLPGFRHVPFGNIEAMRTALNECKKTGDDVAAVILEPIQGEGGVILPPPGYLTAVRKLCDEFGALMILDEVQTGMGRTGKMFACEHENVQPDILCLAKALGGGVMPIGATIATEEVFSVLFDNPFLHTTTFGGNPLACAAALATINVLLEQNLPAQAEQKGDMLLDGFRQLAREYPDLVQEARGKGMLMAIEFVDNEIGYNFASEMFRQRVLVAGTLNNAKTIRIEPPLTLTIEQCELVIKAARKALAAMRVSVEEA
modifications: Escherichia coli (strain K12)
notes: Escherichia coli aminotransferase, gene product of ygjG
B4: SEQ ID NO: 125: Pseudomonas aeruginosa aminotransferase (protein, listed as Pseudomonas aeruginosa)
chain: MNARLHATSPLGDADLVRADQAHYMHGYHVFDDHRVNGSLNIAAGDGAYIYDTAGNRYLDAVGGMWCTNIGLGREEMARTVAEQTRLLAYSNPFCDMANPRAIELCRKLAELAPGDLDHVFLTTGGSTAVDTAIRLMHYYQNCRGKRAKKHVITRINAYHGSTFLGMSLGGKSADRPAEFDFLDERIHHLACPYYYRAPEGLGEAEFLDGLVDEFERKILELGADRVGAFISEPVFGSGGVIVPPAGYHRRMWELCQRYDVLYISDEVVTSFGRLGHFFASQAVFGVQPDIILTAKGLTSGYQPLGACIFSRRIWEVIAEPDKGRCFSHGFTYSGHPVACAAALKNIEIIEREGLLAHADEVGRYFEERLQSLRDLPIVGDVRGMRFMACVEFVADKASKALFPESLNIGEWVHLRAQKRGLLVRPIVHLNVMSPPLILTREQVDTVVRVLRESIEETVEDLVRAGHR
modifications: Pseudomonas aeruginosa (strain ATCC 15692 / DSM 22644 / CIP 104116 / JCM 14847 / LMG 12228 / 1C / PRS 101 / PAO1)
notes: Pseudomonas aeruginosa aminotransferase

Tests used:
Assay type in all cases: biochemical
[1] = test system: heptanedioyl-[acp] or heptanedioyl-[acp] methyl ester; experiment: Thioesterase enzyme activity assay, release of holo-ACP monitored by absorbance at 412 nm; conditions: purified thioesterase, 37° C., 30 min, FIG. 41
Protocol: The thioesterases were expressed and purified following procedures disclosed herein. The enzyme activity assay was performed in duplicate or triplicate in a buffer having heptanedioyl-[acp] or heptanedioyl-[acp] methyl ester as substrate. The enzyme activity assay reaction was initiated by adding purified thioesterase gene products to the assay buffer and incubating at 37° C. for 30 min. The release of holo-ACP was monitored by absorbance at 412 nm. The absorbance associated with the empty vector control is very low. Many of the gene products of thioesterases accepted heptanedioyl-[acp] or heptanedioyl-[acp] methyl ester as substrate as confirmed via relative spectrophotometry (see FIG. 41).

[2] = Aminotransferase activity, heptane-1,7-diamine to 7-aminoheptanal, L-alanine formation by RP-HPLC; conditions: cell free extract, 10 mM substrate, 25° C., 4 h, against empty vector control, FIG. 50
Protocol: A sequence encoding an N-terminal His-tag was added to the Chromobacterium violaceum, Pseudomonas aeruginosa, Pseudomonas syringae, Rhodobacter sphaeroides, Escherichia coli, and Vibrio fluvialis genes encoding the aminotransferases of SEQ ID NOs: 116 (GenBank Accession No. AAQ59697.1), 119 (RefSeq Accession No. NP_417544.5), 125 (GenBank Accession No. AAGO8191.1), 126 (GenBank Accession No. AAY39893.1), 127 (GenBank Accession No. ABA81135.1), and 128 (GenBank Accession No. AEA39183.1), respectively such that N-terminal HIS tagged aminotransferases could be produced. The modified genes were cloned into a pET21a expression vector under the T7 promoter. Each expression vector was transformed into a BL21[DE3] E. coli host. Each resulting recombinant E. coli strain were cultivated at 37° C. in a 250 mL shake flask culture containing 50 mL LB media and antibiotic selection pressure, with shaking at 230 rpm. Each culture was induced overnight at 16° C. using 1 mM IPTG.
The pellet from each induced shake flask culture was harvested via centrifugation. Each pellet was resuspended and lysed via sonication. The cell debris was separated from the supernatant via centrifugation and the cell free extract was used immediately in enzyme activity assays.
Enzyme activity assays in the reverse direction (i.e., heptane-1,7-diamine to 7-aminoheptanal) were performed in a buffer composed of a final concentration of 50 mM HEPES buffer (pH=7.5), 10 mM heptane-1,7-diamine, 10 mM pyruvate, and 100 μM pyridoxyl 5′ phosphate. Each enzyme activity assay reaction was initiated by adding cell free extract of the aminotransferase gene product or the empty vector control to the assay buffer containing the heptane-1,7-diamine and then incubated at 25° C. for 4 h, with shaking at 250 rpm. The formation of L-alanine was quantified via RP-HPLC.

[3] = Aminotransferase activity, N7-acetyl-1,7-diaminoheptane to N7-acetyl-7-aminoheptanal, L-alanine formation by RP-HPLC; conditions: cell free extract, 10 mM substrate, 25° C., 4 h, against empty vector control, FIG. 51
Protocol: The activity of the N-terminal His-tagged aminotransferases of SEQ ID NOs: 116 (GenBank Accession No. AAQ59697.1), 119 (RefSeq Accession No. NP_417544.5), 125 (GenBank Accession No. AAGO8191.1), 126 (GenBank Accession No. AAY39893.1), 127 (GenBank Accession No. ABA81135.1), and 128 (GenBank Accession No. AEA39183.1) (see Example 6) for converting N7-acetyl-1,7-diaminoheptane to N7-acetyl-7-aminoheptanal was assayed using a buffer composed of a final concentration of 50 mM HEPES buffer (pH=7.5), 10 mM N7-acetyl-1,7-diaminoheptane, 10 mM pyruvate and 100 μM pyridoxyl 5′ phosphate. Each enzyme activity assay reaction was initiated by adding a cell free extract of the aminotransferases or the empty vector control to the assay buffer containing the N7-acetyl-1,7-diaminoheptane then incubated at 25° C. for 4 h, with shaking at 250 rpm. The formation of L-alanine was quantified via RP-HPLC.

Molecule | synthesis of holo-ACP using heptanedioyl-[acp] methyl ester as substrate, compared to using heptanedioyl-[acp] as substrate [1] | acceptance of heptane-1,7-diamine as substrate, forming 7-aminoheptanal [2] | acceptance of N7-acetyl-1,7-diaminoheptane as substrate, forming N7-acetyl-7-aminoheptanal [3]
B1 | more efficiently | – | –
B2 | more efficiently | – | –
B3 | – | accepted heptane-1,7-diamine as substrate | accepted N7-acetyl-1,7-diaminoheptane as a substrate
B4 | – | accepted heptane-1,7-diamine as substrate | accepted N7-acetyl-1,7-diaminoheptane as a substrate
